Experimental data reported in patent publication US20110045534A1.
“And” between values parts separate entries of the source, which are not always exact repeats. Equal entries are not always repeated.

How the values were obtained:
[1] = molecular target: immunizing peptide for SUZ12; test: ELISA on coated peptide; supernatant 1x
[2] = molecular target: immunizing peptide for MRPL11; test: ELISA on coated peptide; supernatant 1x
[3] = molecular target: immunizing peptide for ERK2p; test: ELISA on coated peptide; supernatant 1x
[4] = molecular target: immunizing peptide for SUZ12; test: ELISA on coated peptide; supernatant 1/10
[5] = molecular target: immunizing peptide for MRPL11; test: ELISA on coated peptide; supernatant 1/10
[6] = molecular target: immunizing peptide for ERK2p; test: ELISA on coated peptide; supernatant 1/10

Row | Binder | absorbance (OD 450 nm) [1] | absorbance (OD 450 nm) [2] | absorbance (OD 450 nm) [3] | absorbance (OD 450 nm) [4] | absorbance (OD 450 nm) [5] | absorbance (OD 450 nm) [6]
1 | anti-MRPL11 rabbit IgG expressed from the H-2A-L cassette (antibody) heavy: QSVEESGGRLVKPDETLTITCTVSGIDLNNNAMGWVRQAPGEGLEYIGFIGGSGATYYSTWAKGRFTISKSSTTVDLMITSPTTEDTATYFCARYAGSGSFDFSGPGTLVTVSLGQPKAPSVFPLAPCCGDTPSSTVTLGCLVKGYLPEPVTVTWNSGTLTNGVRTFPSVRQSSGLYSLSSVVSVTSSSQPVTCNVAHPATNTKVDKTVAPSTCSKPTCPPPELLGGPSVFIFPPKPKDTLMISRTPEVTCVVVDVSQDDPEVQFTWYINNEQVRTARPPLREQQFNSTIRVVSTLPIAHQDWLRGKEFKCKVHNKALPAPIEKTISKARGQPLEPKVYTMGPPREELSSRSVSLTCMINGFYPSDISVEWEKNGKAEDNYKTTPAVLDSDGSYFLYSKLSVPTSEWQRGDVFTCSVMHEALHNHYTQKSISRSPGKEGRGSLLTCGDVEENPG light: QVLTQTPSPVSAAVGNTVTINCQASQSVRDNNYLSWYQQKPGQPPKLLIYRASTLESGVPSRFKGNGSGTQFTLTISDLECDDAATYYCQGGYGGNFFPFGGGTEVVVKGDPVAPTVLIFPPAADQVATGTVTIVCVANKYFPDVTVTWEVDGTTQTTGIENSKTPQNSADCTYNLSSTLTLTSTQYNSHKEYTCKVTQGTTSVVQSFNRGDC | 0.0487 OD450 and 0.0489 OD450 | 1.01 OD450 and 1.06 OD450 | 0.0534 OD450 and 0.0524 OD450 | 0.0461 OD450 and 0.0445 OD450 | 0.972 OD450 and 1.04 OD450 | 0.0478 OD450 and 0.0482 OD450
2 | anti-MRPL11 rabbit IgG expressed from the L-2A-H cassette (antibody) light: QVLTQTPSPVSAAVGNTVTINCQASQSVRDNNYLSWYQQKPGQPPKLLIYRASTLESGVPSRFKGNGSGTQFTLTISDLECDDAATYYCQGGYGGNFFPFGGGTEVVVKGDPVAPTVLIFPPAADQVATGTVTIVCVANKYFPDVTVTWEVDGTTQTTGIENSKTPQNSADCTYNLSSTLTLTSTQYNSHKEYTCKVTQGTTSVVQSFNRGDCEGRGSLLTCGDVEENPG heavy: QSVEESGGRLVKPDETLTITCTVSGIDLNNNAMGWVRQAPGEGLEYIGFIGGSGATYYSTWAKGRFTISKSSTTVDLMITSPTTEDTATYFCARYAGSGSFDFSGPGTLVTVSLGQPKAPSVFPLAPCCGDTPSSTVTLGCLVKGYLPEPVTVTWNSGTLTNGVRTFPSVRQSSGLYSLSSVVSVTSSSQPVTCNVAHPATNTKVDKTVAPSTCSKPTCPPPELLGGPSVFIFPPKPKDTLMISRTPEVTCVVVDVSQDDPEVQFTWYINNEQVRTARPPLREQQFNSTIRVVSTLPIAHQDWLRGKEFKCKVHNKALPAPIEKTISKARGQPLEPKVYTMGPPREELSSRSVSLTCMINGFYPSDISVEWEKNGKAEDNYKTTPAVLDSDGSYFLYSKLSVPTSEWQRGDVFTCSVMHEALHNHYTQKSISRSPGK | 0.0542 OD450 and 0.0585 OD450 | 0.973 OD450 and 0.998 OD450 | 0.0663 OD450 and 0.0671 OD450 | 0.0486 OD450 and 0.0529 OD450 | 1.14 OD450 and 0.99 OD450 | 0.0621 OD450 and 0.0483 OD450
3 | anti-MRPL11 rabbit IgG expressed from two separate vectors (H + L positive control) (antibody) heavy: QSVEESGGRLVKPDETLTITCTVSGIDLNNNAMGWVRQAPGEGLEYIGFIGGSGATYYSTWAKGRFTISKSSTTVDLMITSPTTEDTATYFCARYAGSGSFDFSGPGTLVTVSLGQPKAPSVFPLAPCCGDTPSSTVTLGCLVKGYLPEPVTVTWNSGTLTNGVRTFPSVRQSSGLYSLSSVVSVTSSSQPVTCNVAHPATNTKVDKTVAPSTCSKPTCPPPELLGGPSVFIFPPKPKDTLMISRTPEVTCVVVDVSQDDPEVQFTWYINNEQVRTARPPLREQQFNSTIRVVSTLPIAHQDWLRGKEFKCKVHNKALPAPIEKTISKARGQPLEPKVYTMGPPREELSSRSVSLTCMINGFYPSDISVEWEKNGKAEDNYKTTPAVLDSDGSYFLYSKLSVPTSEWQRGDVFTCSVMHEALHNHYTQKSISRSPGK light: QVLTQTPSPVSAAVGNTVTINCQASQSVRDNNYLSWYQQKPGQPPKLLIYRASTLESGVPSRFKGNGSGTQFTLTISDLECDDAATYYCQGGYGGNFFPFGGGTEVVVKGDPVAPTVLIFPPAADQVATGTVTIVCVANKYFPDVTVTWEVDGTTQTTGIENSKTPQNSADCTYNLSSTLTLTSTQYNSHKEYTCKVTQGTTSVVQSFNRGDC | 0.0474 OD450 | 0.971 OD450 | 0.0575 OD450 | 0.0485 OD450 | 1.01 OD450 | 0.0629 OD450
